From the nanobody polyreactivity screen of Harvey et al. (2022)

Assay: yeast display, Sf9 membrane polyspecificity reagent, FACS + sequencing; frameworks hold sequencing errors
In short: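 Nanobodies from a synthetic yeast display library (Saccharomyces cerevisiae BJ5465), induced 36–48 hours with galactose, were stained 1 hour at 4 °C with 10% biotinylated, detergent-solubilized Sf9 membrane reagent, enriched on streptavidin microbeads, then FACS-sorted. Anti-HA (expression) and streptavidin (reagent binding) fluorescence set low and high (top ~1%) gates. Polyreactivity labels come from the gate of origin. Genes were colony-PCR amplified, MiSeq 2 × 250 sequenced and filtered by CDR length.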

Row | Sequence | polyreactivity (PSR sort gate)
1 | QVQLVETGGGLVQAGGSLRLSCAASGGIFYPNDMGWYRQAPGKEREFVAAITSSSGSTYADSVKGRFTISRDNAKNTVYLQMNSLKPEDTAVYYCATPPDDKGGGYLGYDYWGQGTQVTVSS | low polyreactivity
2 | QVQLVETGGGLVQAGGSLRLSCAASGITFRGYAMGWYRQAPGKERELVAAISGSGGTTYYADSVKGRFTISRDNAKNTVYLQMNSLKPEDTAVYYCNAKAVRGRYVWYDYWGQGTQVTVSS | high polyreactivity
3 | QVQLVETGGGLVQAGGSLRLSCAASGLSFGRNAIGSYRQAPGKERELVAAISRSGGRTSYADSVKGRFTISRDTAKNTVYLQMNSLKPEDTAVYYCAARSDVYTHDYWGQATQVTVSS | high polyreactivity
4 | QVQLVETGGGLVQAGGSLRLSCAASGRIFGYYTMGWYRPAPGKERELVADSSGGNTSYADSVKGRFTISRDNAKNTVYLQMNSLKPEDTAVYYCAKDLPGAWRGDDYWGQGTLVTVSS | low polyreactivity
5 | QVQLVETGGGLVQAGGSLRLSCAASGRIFLKYAMGWYRQAPGKERELVAAISRRGASTYYADSVKGRFTISRDNAKNTVYLQMNSLKPEDTAVYYCNARTSSGMDYWGQGTQVTVSS | high polyreactivity
6 | QVQLVETGGGLVQAGGSLRLSCAASGRIFRTNAMGWYRQAPGKEREFVAAISKDGGRTYYADSVKGRFTISRDNAKNTVYLQMNSLKPEDTAVYYCNARHRYYRYGYWGQGTQVTVSS | high polyreactivity
7 | QVQLVETGGGLVQAGGSLRLSCAASGRTFGYYTMGCYRQAPGKERELVAGISSAGSTNYADSVKGRFTISRDNAKNTVYLQMNSLKPADTAVYYCAARTYKVIQNNSWETYYYWGQGTQVTVSS | high polyreactivity
8 | QVQLVETGGGLVQAGGSLRLSCAASGRTFHRYAVGWYRQAPGKVRELVAAISFSGGSTYYADSVKGRFTISRDNAKNTVYLQMNSLKPEDTAVYYCAPRAVWSSWGRRYDSWGEGTQVTVSS | high polyreactivity
9 | QVQLVETGGGLVQAGGSLRLSCAASGRTFTGNAMGWYRQEPGKERELVADISSDGSTNYADSVKGRFTISRDNAKNTVYLQMNSLKPEDTAVYYCAADPFWTYYIDYDYWGQGTQVTVSS | low polyreactivity
10 | QVQLVETGGGLVQAGGSLRLSCAASGRTIGFYAMGWYRQAPGKERELVAAINRSGDSTYYADSVKGRFTISRDNAKNTVYLHMNSLKPEDTAVYYCAARRSTGYGYWGQGTQVTVSS | high polyreactivity
11 | QVQLVETGGGLVQAGGSLRLSCAASGSIFGPYAMAWYRQAPGKERELVAVISRSGGSTYYADSVKGRFTISRDNAKNTVYLQMNSLKPEDTAVYYCAAYRGPRADYYWGQGTQVTVSS | high polyreactivity
12 | QVQLVETGGGLVQAGGSLRLSCAASGSIFHYYAKGWYRQAPGKERELVAAISWSGVTTYYADSVKGRFTISRDNAKNTVYLQMNSLKPEDTAVYYCAADSWRYPYYYWGQGTQVNVSS | high polyreactivity
13 | QVQLVETGGGLVQAGGSLRLSCAASGSIFLVYAMGWNRPAPGKQRQVVAAIRWSGGSTYYADSVKGRFTISRDNAKKTVYLQMNSLKPEDTAVYYCNAGESYSVKGGPYDSDYWGQGTQVTVSS | low polyreactivity
14 | QVQLVETGGGLVQAGGSLRLSCAASGSIFTKYAMGRYRQAPGKERELVAAISWSGVSTYYADSVKGRFTISRDNAKNTVYLLMNSLKPEDTAVYYCNTRRYRSYGTTRYCFWGQGTQVTVSS | high polyreactivity
15 | QVQLVETGGGLVQAGGSLRLSCAASGSIFYAYAMGWYRQAPGKERELVATITSGGSTNYADSVKGRFTISRDNAKNTVYLQMNSLKPEDTAVYYCAVDISYSLGGGFGYDYWGQGTQVTVSS | low polyreactivity
16 | QVQLVETGGGLVQAGGSLRLSCAASGSTFAKYVMGWYRPAPGKERELVAAISRRGSSTYYADSEKGRFTISRDYAKNTVYLQMNSLKPEDTAVYYCAARFRYSGFEGMDYWGQGNQVTVSS | high polyreactivity
17 | QVQLVETGGGLVQAGGSLRLSCAASGSTFDYNAMGWYRQAPGKERELVASITESGDSTYYADSVKGRFTISRDNAKNTVYLQMNSLKPEDTAVYYCAATQVHWVYVVYYEYEYWGQGTQVTVSS | low polyreactivity
18 | QVQLVETGGGLVQAGGSLRLSCAASGSTFEYNAMGWYRQAPGKERALVAGISSGGSTYYADSVKGRFTISRDNAKNTVYLQMNSLKPEDTAVYYCATSEASFATWDRYTELDYWGQGTQVTVSS | low polyreactivity
19 | QVQLVETGGGLVQAGGSLRLSCAASGSTFGGYAMGWYRQAPGKERELVATITGGGSTNYADSVKGRFTISRDNAKNTVYLQMNSLKPEDSAVYYCAKVRTGQSRSVGYDYWGQGTQVTVSS | low polyreactivity
20 | QVQLVETGGGLVQAGGSLRLSCAASGSTFKGYAMGWYRQSPGKERELVAAISRSGTRTYYADSVKGRFTISRDNAKNTVYLQMNSLKPEDTAVSFCNKDTGYIAHDNENGRDYWGQGTQVTVSS | low polyreactivity
21 | QVQLVETGGGLVQAGGSLRLSCAASGSTFRFYVMGWYRQAPGKERELVAAISTSGGSTYYADSVKGRFTISRDTAKNTVYLQMNSLKPEDTAVYYCAADLIASLRPYYQYDYWGQGTQVTVSS | low polyreactivity
22 | QVQLVETGGGLVQAGGSLRLSCAASGSTFTRYGMGWYRQAPGKERELVADITTSGSSTYYADSVKGRFTISRDNAKNTVYLQMNSLKPEDTAVYYCAADWSSWGFDYWGQGTQVTVSS | low polyreactivity
23 | QVQLVETGGGLVQAGGSLRLSCAASGSTFYKYGMGWYRPAPGKERELVAAISGSGDSTYYADSVKGRFTISRDNAKNTVYLQMNSLKPEDTAVSYCNAGPWWFLHEYDYWGQGTQVTVSS | low polyreactivity
24 | QVQLVETGGGLVQAGGSLRLSCAASGTFHWYAMGWYRPAPGKERELVAAITGSGGNTYYADSVKGRFTISRDNAKNTVYLQMNSLKPEDTAVYYCAARIYTWSVQYTGYGYWGQGTQVTVSS | high polyreactivity
25 | QVQLVETGGGLVQAGGSLRLSCAASGYIFYVYAMGWYRQPPGKERELVAAINSGDITYYADSVKGRFTISRDNAKNTVYLQMNRLKPEDTAVYFGATVLILIYDYWGQGTQVTVSS | low polyreactivity
26 | QVQLVETGGGLVQAGGSLRLSCAASVFTFPTYTMGWYRQAPGKEREFVARITKRGGSTYYADSVKGRFTISRVNVKNTVYLQRKCVKPEDTAVYYCDAGFWWSSYGYWGQGSQVTVSS | high polyreactivity
27 | QVQLVETGGGLVQAGGSLRLSCAGSVSIFNRNAMGWYRQAPGKERELVAAISNSGARTYYADSVKGRFTISRDNAKNTVYLQMNSLKPEDTAVYYCTAVRRRSKLYNYWGQGTQVTVSS | high polyreactivity
28 | QVQLVETGGGLVQAGGSLRLSCAHSGSIFASNAMGWYRHAPGKEREFVAAIRYSGGITYYADSVKGRFTISRDNAKNTVYLQMTSLKPEDTAVYYCAAYGWGNRWYSRFDYWGQGTQVTVSS | high polyreactivity
29 | QVQLVETGGGLVQAGGSLRLSCAPSGRIFGIYAMGWYRQAPGKERELVASITDGTITNYADSVKGRFTISRDNAKNTVYLQMNSLKPVDTAVYYFAAGTQAHAYVVRPIEMDYWGQGTQVTVSS | low polyreactivity
30 | QVQLVETGGGLVQAGGSLRLSCAPSGSTFYYYVMGWYRPPPGNERELVAAINSGGSTYYADSVKGRFTISRDNAKNTVYLQMNSLKPEDTAVYYCAKSWSYWYQYFYWGQGTQVTVSS | low polyreactivity
